{
  "source": "paper PMC10572819",
  "key": {"[1]": {"assay": "Western blot, HEK-293 co-transfected with BAP31", "conditions": "glycan lost; control: WT-EpCAM"}, "[2]": {"assay": "Western blot, HEK-293 with BAP31 siRNA", "conditions": "glycan lost; control: WT-EpCAM"}},
  "data": [
    {"protein": "epithelial cell-adhesion molecule (EpCAM): N76/111/198A (protein) parent chain: MAPPQVLAFGLLLAAATATFAAAQEECVCENYKLAVNCFVNNNRQCQCTSVGAQNTVICSKLAAKCLVMKAEMNGSKLGRRAKPEGALQNNDGLYDPDCDESGLFKAKQCNGTSMCWCVNTAGVRRTDKDTEITCSERVRTYWIIIELKHKAREKPYDSKSLRTALQKEITTRYQLDPKFITSILYENNVITIDLVQNSSQKTQNDVDIADVAYYFEKDVKGESLFHSKKMDLTVNGEQLDLDPGQTLIYYVDEKAPEFSMQGLKAGVIAVIVVVVIAVVAGIVVLVISRKKRMAKYEKAEIKEMGEMHRELNA", "values": [
      {"measurement": "other: rise in protein level on BAP31 overexpression", "setting": "[1]", "value": "abolishes"},
      {"measurement": "other: fall in protein level on BAP31 knockdown", "setting": "[2]", "value": "abolishes"}
    ]}
  ]
}
